The text below walks through data of patent US20090305399A1.

Holding throughout (assay): cell-based or functional assay
For assay [1], the target named is human Kv1.3 channel (human) (UniProt P22001).
Assay [2] deals with human Kv1.1 channel (human) (UniProt Q09470).
Assay [3] deals with human Kv1.3 channel (human) (UniProt P22001). The source holds these as a separate data set.

Like-named read-outs stand apart in the source and are kept apart here. Ends that are not written are not given here.

Chain of human Kv1.3 channel (human) (P22001 whole entry): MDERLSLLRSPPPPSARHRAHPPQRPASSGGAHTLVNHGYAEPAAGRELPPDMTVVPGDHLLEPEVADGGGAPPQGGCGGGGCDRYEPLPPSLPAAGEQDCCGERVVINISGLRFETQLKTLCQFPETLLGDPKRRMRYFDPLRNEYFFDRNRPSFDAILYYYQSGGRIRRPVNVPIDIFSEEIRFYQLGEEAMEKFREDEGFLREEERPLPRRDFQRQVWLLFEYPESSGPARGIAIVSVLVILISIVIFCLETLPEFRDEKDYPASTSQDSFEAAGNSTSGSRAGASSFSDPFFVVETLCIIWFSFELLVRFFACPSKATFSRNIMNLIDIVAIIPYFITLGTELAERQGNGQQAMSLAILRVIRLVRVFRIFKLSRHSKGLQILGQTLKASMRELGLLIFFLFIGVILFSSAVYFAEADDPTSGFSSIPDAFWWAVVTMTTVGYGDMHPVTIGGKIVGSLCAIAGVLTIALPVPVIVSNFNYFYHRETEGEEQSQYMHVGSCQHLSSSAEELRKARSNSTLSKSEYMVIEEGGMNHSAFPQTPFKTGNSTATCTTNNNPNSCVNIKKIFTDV
Chain of human Kv1.1 channel (human) (Q09470 whole entry): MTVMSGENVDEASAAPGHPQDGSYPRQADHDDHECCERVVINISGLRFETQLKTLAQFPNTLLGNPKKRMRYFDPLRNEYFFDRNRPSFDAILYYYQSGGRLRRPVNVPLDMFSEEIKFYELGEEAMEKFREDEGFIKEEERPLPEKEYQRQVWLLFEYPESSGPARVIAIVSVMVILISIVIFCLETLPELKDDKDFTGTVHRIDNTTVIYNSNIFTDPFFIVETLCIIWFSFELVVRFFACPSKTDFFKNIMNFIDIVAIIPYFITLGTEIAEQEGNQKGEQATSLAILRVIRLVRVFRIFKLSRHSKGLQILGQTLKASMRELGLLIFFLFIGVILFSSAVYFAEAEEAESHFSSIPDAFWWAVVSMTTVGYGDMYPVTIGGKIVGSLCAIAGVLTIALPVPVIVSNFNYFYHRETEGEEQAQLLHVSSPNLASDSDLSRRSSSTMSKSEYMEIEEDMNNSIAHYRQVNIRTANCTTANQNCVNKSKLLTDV

For 20k PEG-OSK1[Ala29, 1Nal34] (peptide), in assay [1], the WB/IFNg IC50 (human whole blood IFNg response) amounted to 0.081 nM and the WB/IL-2 IC50 (human whole blood IL-2 response) stood at 0.049 nM. The corresponding values for OSK1 analogue E16K, K20D (peptide) are 1.32 nM and 1.58 nM. Take “E. coli-derived Fc-L-ShK[1-35] (Fc fusion)”: in assay [1], the Kv1.3 IC50 by WCVC (nM), HEK293/Kv1.3 cells was found to be 1.4 nM. Turning to “PEG-Fc-L10-SHK(2-35), Pool # 3 (Fc fusion)”, in assay [1], the IC50 Sustained worked out at 0.175 nM. On to 20k PEG-ShK (peptide), for which, in assay [1], the WB/IFNg IC50 (human whole blood IFNg response) amounted to 0.065 nM and the WB/IL-2 IC50 (human whole blood IL-2 response) was 0.046 nM. For the molecule “PEG-Fc-L10-SHK(2-35), Pool # 2 (Fc fusion)”, the IC50 Sustained in assay [1] is 0.158 nM. In the case of E. coli-derived Fc-L-OSK1 (Fc fusion), in assay [1], the Kv1.3 IC50 by WCVC (nM), HEK293/Kv1.3 cells was found to be 3.2 nM. The molecule PEG-Fc-L10-OSK1, Pool # 2 (Fc fusion) came in with an IC50 Sustained in assay [1] of 0.332 nM. For the molecule “E. coli-derived ShK[2-35]-L-Fc (Fc fusion)”, in assay [1], the Kv1.3 IC50 by IWQ (nM), CHO/Kv1.3 cells was found to be 4.9 nM. As for PEG-Fc-L10-OSK1, Pool # 3 (Fc fusion), in assay [1], the IC50 Sustained was 0.256 nM.

The molecule OSK1 (wild-type) (peptide) yielded a Kv1.1 IC50, whole cell patch clamp ePhys in assay [2] of 0.202 nM. Also, in assay [1], the Kv1.3 IC50, whole cell patch clamp ePhys was found to be 0.039 nM and the Kv1.3 Selectivity (=Kv1.1/Kv.3 IC50) was 5 fold. As for GGGGS-Osk1 (peptide), in assay [1], the WB/IFNg IC50 (human whole blood IFNg response) stood at 2.2 nM and the WB/IL-2 IC50 (human whole blood IL-2 response) turned out to be 1.36 nM.

Fc-L25-ShK[2-35] (Fc fusion) came in with an IC50, whole cell patch clamp on HEK293/Kv1.3 cells in assay [1] of 0.15 nM.

On to “E. coli-derived Shk[1-35]-L-Fc (Fc fusion)”, for which, in assay [1], the Kv1.3 IC50 by IWQ (nM), CHO/Kv1.3 cells was 2.4 nM. As to synthetic OSK1 toxin peptide, in assay [1], the IC50 of block of outward potassium current, whole cell patch clamp worked out at 0.039 nM. Molecule Fc-L5-ShK[2-35] (Fc fusion) displayed an IC50 of block of outward potassium current, whole cell patch clamp in assay [1] of 0.1 nM. In assay [1], “CHO-derived Fc-L10-ShK[2-35] (Fc fusion)” registered an IC50 of block of outward potassium current, whole cell patch clamp of 0.115 nM. In assay [1], “E. coli-derived Fc-L-ShK[2-35] (Fc fusion)” returned a Kv1.3 IC50 by IWQ (nM), CHO/Kv1.3 cells of 2.8 nM and a Kv1.3 IC50 by WCVC (nM), HEK293/Kv1.3 cells of 1.3 nM.

B1: synthetic ShK[2-35] (peptide)
peptide: SCIDTIPKSRCTAFQCKHSMKYRLSFCRKTCGTC
modifications: not fully specified; ends and bridges not checked
Turning to B1, the IC50 of block of outward potassium current, whole cell patch clamp in assay [3] is 0.049 nM.
